# In patent US20190233493A1 (Sanofi, published 2019):
# *1 amine or outer side, *2 acyl side, *3 side chain or, on linkers, in order; H or OH if unused. Primed or numbered codes have the meaning given here. Side-chain parts run from the residue outwards. [ ]: non-standard residue; d: D form. The star is where a group is joined. PEG4′ = 2-[2-[2-[2-[2-aminoethoxy]ethoxy]ethoxy]ethoxy]propanoyl; αMeW = C[C@](N)(Cc1c[nH]c2ccccc12)C(=O)O; γGlu = O=C(O)[C@H](CCC(=O)[*:2])N[*:1]; 1Nal = N[C@@H](Cc1cccc2ccccc12)C(=O)O; Stearoyl = CCCCCCCCCCCCCCCCCC(=O)*; Palmitoyl = CCCCCCCCCCCCCCCC(=O)*; Cit = NC(=O)NCCC[C@H](N)C(=O)O; αMeK = C[C@](N)(CCCCN)C(=O)O; Lauroyl = CCCCCCCCCCCC(=O)*; Nle = CCCC[C@H](N)C(=O)O; PEG2′ = PEG2 spacer unit; PEG2″ = not defined here; Aib = CC(C)(N)C(=O)O
# T1: RXFP1 receptor (UniProt Q9HBX9 1-757, limits assumed)
# T1 sequence (looked up): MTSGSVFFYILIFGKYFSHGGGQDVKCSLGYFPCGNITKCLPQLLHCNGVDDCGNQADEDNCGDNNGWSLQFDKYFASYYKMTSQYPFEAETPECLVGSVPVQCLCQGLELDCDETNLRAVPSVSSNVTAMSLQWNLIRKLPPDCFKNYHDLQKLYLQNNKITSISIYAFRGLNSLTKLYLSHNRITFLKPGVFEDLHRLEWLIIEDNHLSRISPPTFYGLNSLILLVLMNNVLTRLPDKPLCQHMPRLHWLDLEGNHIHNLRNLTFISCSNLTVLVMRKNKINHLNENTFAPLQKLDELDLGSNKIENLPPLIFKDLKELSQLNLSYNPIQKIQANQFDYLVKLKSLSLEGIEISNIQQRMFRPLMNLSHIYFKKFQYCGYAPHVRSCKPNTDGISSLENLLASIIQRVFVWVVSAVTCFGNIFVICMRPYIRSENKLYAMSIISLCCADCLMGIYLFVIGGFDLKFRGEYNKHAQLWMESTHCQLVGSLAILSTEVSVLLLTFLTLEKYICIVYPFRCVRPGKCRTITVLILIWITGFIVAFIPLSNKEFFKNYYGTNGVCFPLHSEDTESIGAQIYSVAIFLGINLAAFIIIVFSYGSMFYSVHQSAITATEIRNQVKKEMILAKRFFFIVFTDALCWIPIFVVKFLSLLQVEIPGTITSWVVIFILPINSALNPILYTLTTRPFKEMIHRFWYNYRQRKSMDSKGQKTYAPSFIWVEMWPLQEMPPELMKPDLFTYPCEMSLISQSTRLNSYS
# Target: T1, RXFP1 receptor
# Experiment: cell-based or functional assay
Binder,"EC50 (nM), OVCAR 5 cells (cAMP) [nM]","EMax, OVCAR 5 cells (cAMP) [%]"
Ac-LEGREKVRAK(Ac)I[Aib][Aib]EG[Nle]ST[1Nal]S[Aib]RKKK([PEG2″-PEG2″-γGlu-γGlu-γGlu-PEG2″-γGlu-Stearoyl])-NH2 [peptide of SEQ ID NO: 103],0.09,79
Ac-LEGREKVRAK(Ac)I[Aib][Aib]EG[Nle]STWS[Aib]RKKK([PEG2″-PEG2″-γGlu-γGlu-γGlu-PEG2″-γGlu-Stearoyl])-NH2 [peptide of SEQ ID NO: 102],0.08,80
Ac-LEGREKVRAQI[Aib][Aib]EG[Nle]STWS[Aib]RKKK[PEG2″][PEG2″][PEG2″][γGlu][γGlu][γGlu]K([γGlu-Palmitoyl])-NH2 [peptide of SEQ ID NO: 107],0.63,85
Ac-LEGREKVRAQI[Aib][Aib]EG[Nle]STWS[Aib]RK[PEG2″][PEG2″]K([γGlu-γGlu-γGlu-Palmitoyl])-NH2 [peptide of SEQ ID NO: 11],14.7,89
Ac-LEGREKVRAQI[Aib][Aib]EG[Nle]STWS[Aib]RKK[PEG2″][PEG2″][PEG2″][γGlu][γGlu][γGlu]K([γGlu-Palmitoyl])-NH2 [peptide of SEQ ID NO: 110],0.17,80
Ac-LEGREKVRAQI[Aib][Aib]EG[Nle]STWS[Aib]RK[PEG2′]K([PEG2′-PEG2′-γGlu-γGlu-γGlu-Palmitoyl])-NH2 [peptide of SEQ ID NO: 13],8.1,81
Ac-LEGREKVRAQI[Aib][Aib]EG[Nle]STWS[Aib]RKKK[PEG2″][PEG2″][PEG2″][γGlu][γGlu]K([γGlu-Palmitoyl])-NH2 [peptide of SEQ ID NO: 109],0.15,98
Ac-LEGREKVRAQI[Aib][Aib]EG[Nle]STWS[Aib]RKKK([γGlu-γGlu-PEG2″-PEG2″-PEG2″-γGlu-Stearoyl])-NH2 [peptide of SEQ ID NO: 106],0.34,93
Ac-LEGREKVRAK(Ac)I[Aib][Aib]EG[Nle]STFS[Aib]RKK(Ac)K([PEG2″-PEG2″-PEG2″-γGlu-γGlu-γGlu-Stearoyl])-NH2 [peptide of SEQ ID NO: 112],0.32,88
LEGREKVRAXIXXEGQSTWSXRKKX (Ac-L-E-G-R-E-K-V-R-A-K(Ac)-I-Aib-Aib-E-G-Q-S-T-W-S-Aib-R-K-K-K(PEG2-PEG2-PEG2-gE-gE-gE-gE-gE-Stea)-NH2) [peptide of SEQ ID NO: 111],0.21,92
Ac-LEGREKVRAK(Ac)I[Aib][Aib]EG[Nle]STWS[Aib]RKK(Ac)[PEG2″][PEG2″][PEG2″]K([γGlu-γGlu-γGlu-Palmitoyl])-NH2 [peptide of SEQ ID NO: 114],1.34,90
Ac-LEGREKVRAQI[Aib][Aib]EG[Nle]STWS[Aib]RKKK([γGlu-γGlu-PEG2″-PEG2″-γGlu-Stearoyl])-NH2 [peptide of SEQ ID NO: 105],0.03,88
Ac-LEGREKVRAK(Ac)I[Aib][Aib]EGQSTWS[Aib]RKK(Ac)K([PEG2″-PEG2″-PEG2″-γGlu-γGlu-γGlu-Stearoyl])-NH2 [peptide of SEQ ID NO: 113],0.53,89
Ac-LEGREKVRAQI[Aib][Aib]EG[Nle]STWS[Aib]RKKK[PEG2″][PEG2″][PEG2″][PEG2″][γGlu][γGlu][γGlu]K([γGlu-Palmitoyl])-NH2 [peptide of SEQ ID NO: 108],0.15,94
Ac-LEGREKVRAQI[Aib][Aib]EG[Nle]STWS[Aib]RK[PEG2′]K([PEG2′-γGlu-γGlu-γGlu-Palmitoyl])-NH2 [peptide of SEQ ID NO: 12],26.7,76
Ac-LEGREKVRAQI[Aib][Aib]EG[Nle]STWS[Aib]RKK([γGlu-γGlu-PEG2″-PEG2″-γGlu-Stearoyl])-NH2 [peptide of SEQ ID NO: 104],0.16,89

# The remaining lines, values ahead:
"EC50 (nM), OVCAR 5 cells (cAMP) [nM]","EMax, OVCAR 5 cells (cAMP) [%]",Binder
1.16,86,Ac-LEGREKVRAK(Ac)I[Aib][Aib]EG[Nle]STWS[Aib]RKK(Ac)[PEG2′][PEG2′][PEG2′][γGlu][γGlu]K([γGlu-Palmitoyl])-NH2 [peptide of SEQ ID NO: 117]
1,89,Ac-LEGREKVRAK(Ac)I[Aib][Aib]EG[Nle]STWS[Aib]RKK(Ac)[PEG2′][PEG2′][PEG2′][PEG2′][γGlu][γGlu]K([γGlu-Palmitoyl])-NH2 [peptide of SEQ ID NO: 116]
0.76,91,Ac-LEGREKVRAQI[Aib][Aib]EG[Nle]STWS[Aib]RKK(Ac)[PEG2′][PEG2′][PEG2′][PEG2′][γGlu][γGlu]K([γGlu-Palmitoyl])-NH2 [peptide of SEQ ID NO: 121]
0.22,91,Ac-LEGREKVRAK(Ac)I[Aib][Aib]EG[Nle]STWS[Aib]RKK(Ac)K([PEG2′-PEG2′-PEG2′-γGlu-γGlu-γGlu-γGlu-Stearoyl])-NH2 [peptide of SEQ ID NO: 128]
0.29,88,Ac-LEGREKVRAK(Ac)I[Aib][Aib]EG[Nle]STWS[Aib]RKK(Ac)[PEG4′][PEG4′]K([γGlu-γGlu-γGlu-Stearoyl])-NH2 [peptide of SEQ ID NO: 124]
0.1,89,Ac-LEGREKVRAK(Ac)I[Aib][Aib]EG[Nle]ST[αMeW]S[αMeK]RKK(Ac)[PEG2′][PEG2′][PEG2′]K([γGlu-γGlu-γGlu-γGlu-Palmitoyl])-NH2 [peptide of SEQ ID NO: 125]
9.6,91,Ac-LEGREKVRAK(Ac)I[Aib][Aib]EG[Nle]STWS[Aib][Cit]AK(Ac)K([PEG2′-PEG2′-PEG2′-γGlu-γGlu-γGlu-Stearoyl])-NH2 [peptide of SEQ ID NO: 126]
1.79,86,Ac-LEGREKVRAQI[Aib][Aib]EG[Nle]STWS[Aib]RKK(Ac)[PEG2′][PEG2′][γGlu][γGlu]K([γGlu-Palmitoyl])-NH2 [peptide of SEQ ID NO: 118]
1,89,Ac-LEGREKVRAK(Ac)I[Aib][Aib]EG[Nle]STWS[αMeK][Cit]KK(Ac)K([PEG2′-PEG2′-PEG2′-γGlu-γGlu-γGlu-Stearoyl])-NH2 [peptide of SEQ ID NO: 129]
1.21,83,Ac-LEGREKVRAQI[Aib][Aib]EG[Nle]STWS[Aib]RKK(Ac)[PEG2′][PEG2′][PEG2′][γGlu][γGlu]K([γGlu-Palmitoyl])-NH2 [peptide of SEQ ID NO: 119]
0.1,93,LEGREKVRAQIXXEGXSTWSXRKKKX (Ac-L-E-G-R-E-K-V-R-A-Q-I-Aib-Aib-E-G-Nle-S-T-W-S-Aib-R-K-K-K-PEG4-PEG4-K(gE-gE-gE-gE-gE-Stea)-NH2) [peptide of SEQ ID NO: 122]
110,92,Ac-LEGREKVRAK(Ac)I[Aib][Aib]EG[Nle]STWS[Aib]RKK(Ac)K([PEG2′-PEG2′-PEG2′-γGlu-γGlu-γGlu-Lauroyl])-NH2 [peptide of SEQ ID NO: 120]
0.17,93,Ac-LEGREKVRAK(Ac)I[Aib][Aib]EGQSTWS[Aib]RKKK([PEG2′-PEG2′-PEG2′-γGlu-γGlu-γGlu-γGlu-Stearoyl])-NH2 [peptide of SEQ ID NO: 115]
0.38,88,Ac-LEGREKVRAK(Ac)I[Aib][Aib]EG[Nle]STWS[Aib]RKK(Ac)[PEG4′]K([γGlu-γGlu-γGlu-Stearoyl])-NH2 [peptide of SEQ ID NO: 123]
